Assay results: publication PMC12278347, “Exploiting SpyTag/SpyCatcher Technology to Design New Artificial Catalytic Copper Proteins” (Chembiochem, 2025)
No end group written: not given here.

B1: ATCUN(GSH)‐SpyTag002 (peptide)
peptide: GSHVPTIVMVDAYKRYK
notes: SpyTag002 peptide with an N-terminal GSH ATCUN copper site; also called ST‐A1; ST; source: synthetic peptide (solid‐phase peptide synthesis, RP‐HPLC)
B2: ATCUN(DAH)‐SpyTag002 (peptide)
peptide: DAHVPTIVMVDAYKRY-NH2
notes: SpyTag002 peptide with an N-terminal DAH ATCUN copper site; lacks the last lysine and ends with an amidated tyrosine; also called ST‐A2; ST; source: synthetic peptide (solid‐phase peptide synthesis, RP‐HPLC)

Molecular target: T1, SpyCatcher002‐mut (H26Q H62Q), cleaved with TEV protease
T1 construct: Second-generation SpyCatcher (SC002) redesigned with H26Q and H62Q; also called SC1m; SCm; source: recombinant, purified; not shown: HisTag, N-terminal, cleaved
T1 sequence (chain, as listed by the source): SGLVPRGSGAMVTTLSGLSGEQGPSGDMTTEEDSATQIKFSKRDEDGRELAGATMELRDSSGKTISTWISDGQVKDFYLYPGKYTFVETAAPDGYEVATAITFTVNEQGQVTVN
Assay: LC-MS of the covalent adduct; 25 μM each in 20 mM HEPES, pH 7.4, room temperature, injected after 5 min; isopeptide-bonded ST/SC adduct detected by MS; repeated with Cu2+ without effect on adduct formation
Conditions: both partners purified

| Binder | binding result |
| --- | --- |
| B1 | binds |
| B2 | binds |
